This note sets out measurements from PMC11240984.

Data set [1] is described as follows: viscosity measurement (falling ball micro viscometer); Tpm 1 mg/mL in 30 mM Hepes-Na pH 7.3, NaCl from 30 to 200 mM, 4 mM DTT, 20 °C; excess viscosity over buffer as measure of end-to-end interactions between adjacent Tpm molecules. Conditions: other: viscosity measurement (falling ball micro viscometer).
The target in data set [2] is F-actin (fibrillar actin from rabbit skeletal muscle) (rabbit) (UniProt P68135).
The target is the same in data set [3]. Put plainly: co-sedimentation; 10 µM F-actin with 0.5 to 7.5 µM Tpm in 30 mM Hepes-Na pH 7.3, 200 mM NaCl; pelleted at 100,000 x g; SDS-PAGE of pellet and supernatant; apparent affinity, K50% = free Tpm at half-saturation of actin.
Data set [4] has the same target. Put plainly: light scattering on heating (thermally induced dissociation of Tpm from F-actin); 20 µM phalloidin-stabilized F-actin and 10.5 µM Tpm (legend: 10 µM) in 30 mM Hepes-Na pH 7.3, 100 mM NaCl; heated to 65 °C at 1 °C/min; 350 nm, 90°; T_diss = temperature of 50% decrease in light scattering.

“AS-Tpm1.9, Tpm1.9 with N-terminal Ala-Ser extension”: in data set [1], the “excess viscosity at 30 mM NaCl” value was “approximately 2.25 mPa·s for 30 mM NaCl” and the “excess viscosity at 200 mM NaCl” value is given as “close to 0.5 mPa·s for 200 mM NaCl”.
On to “Tpm1.8, cytoplasmic tropomyosin isoform (human, TPM1 gene product)”, for which the solution viscosity at 200 mM NaCl in data set [1] turned out to be 0.593 mPa·s.
As to “Tpm1.9, cytoplasmic tropomyosin isoform (human, TPM1 gene product) (natural protein)”, the bending stiffness of Tpm–F-actin filaments, two-beam optical trap, median (IQT, N); F-actin alone 2.35 in data set [2] was determined as 4.8e-26 N∙m^2. For the same substance, in data set [3], the K50% stood at 0.79 µM. Besides, the T diss (temperature of half-dissociation of Tpm from F-actin) in data set [4] is 46.2 °C.
In data set [2], “AS-Tpm1.8, Tpm1.8 with N-terminal Ala-Ser extension (natural protein)” registered a bending stiffness of Tpm–F-actin filaments, two-beam optical trap, median (IQT, N); F-actin alone 2.35 of 8.1e-26 N∙m^2. Besides, in data set [3], the K50% came out at 0.59 µM. The same substance had a T diss (temperature of half-dissociation of Tpm from F-actin) in data set [4] of 44.4 °C.
Regarding “Tpm1.9, cytoplasmic tropomyosin isoform (human, TPM1 gene product)”, in data set [1], the “excess viscosity at 30 mM NaCl” value is on record as “approximately 2.25 mPa·s for 30 mM NaCl”, the “excess viscosity at 200 mM NaCl” value is reported as “close to 0.5 mPa·s for 200 mM NaCl” and the solution viscosity at 200 mM NaCl came out at 0.886 mPa·s.
In turn, “Tpm1.8, cytoplasmic tropomyosin isoform (human, TPM1 gene product) (natural protein)” showed a bending stiffness of Tpm–F-actin filaments, two-beam optical trap, median (IQT, N); F-actin alone 2.35 in data set [2] of 3.75e-26 N∙m^2. The K50% in data set [3] turned out to be 0.3 µM. Moreover, in data set [4], the T diss (temperature of half-dissociation of Tpm from F-actin) is 44.4 °C.
In turn, “AS-Tpm1.9, Tpm1.9 with N-terminal Ala-Ser extension (natural protein)” yielded a bending stiffness of Tpm–F-actin filaments, two-beam optical trap, median (IQT, N); F-actin alone 2.35 in data set [2] of 4.7e-26 N∙m^2. Further, in data set [3], the K50% was 0.98 µM. Moreover, the T diss (temperature of half-dissociation of Tpm from F-actin) in data set [4] came to 47 °C.
